Results taken from article PMC5344670, “Cryo-EM structure of the ATP-sensitive potassium channel illuminates mechanisms of assembly and gating” (eLife, 2017).

Biological target: the molecule itself
Assay: cryo-EM structure; digitonin-solubilised KATP channel complex in the presence of 1 mM ATP and 1 µM glibenclamide; single-particle analysis with C4 symmetry imposed

B1: rat Kir6.2 (natural protein)
chain: MLSRKGIIPEEYVLTRLAEDPTEPRYRTRERRARFVSKKGNCNVAHKNIREQGRFLQDVFTTLVDLKWPHTLLIFTMSFLCSWLLFAMVWWLIAFAHGDLAPGEGTNVPCVTSIHSFSSAFLFSIEVQVTIGFGGRMVTEECPLAILILIVQNIVGLMINAIMLGCIFMKTAQAHRRAETLIFSKHAVITLRHGRLCFMLRVGDLRKSMIISATIHMQVVRKTTSPEGEVVPLHQVDIPMENGVGGNSIFLVAPLIIYHVIDSNSPLYDLAPSDLHHHQDLEIIVILEGVVETTGITTQARTSYLADEILWGQRFVPIVAEEDGRYSVDYSKFGNTVKVPTPLCTARQLDEDRSLLDALTLASSRGPLRKRSVAVAKAKPKFSISPDSLS
notes: Kir6.2, rat, inwardly rectifying K+ channel family; the final model holds residues 32-356; The eLife digest calls it the mouse form; results and methods say rat; source: INS-1 cells clone 832/13 (rat insulinoma), co-infected with recombinant adenoviruses; purified with f-SUR1 (digitonin, anti-FLAG M2 agarose, FLAG peptide elution, size exclusion chromatography)
  stoichiometry N: 4
